One substance from paper PMC6817362 can be followed below.

For the assay, the target named is Recombinant mouse SIGN-R1 Fc chimera protein, extracellular domain (mouse) (UniProt Q8CJ91). Kind of assay: SPR.
UniProt Q8CJ91, sequence (Q8CJ91 74-325, change not shown): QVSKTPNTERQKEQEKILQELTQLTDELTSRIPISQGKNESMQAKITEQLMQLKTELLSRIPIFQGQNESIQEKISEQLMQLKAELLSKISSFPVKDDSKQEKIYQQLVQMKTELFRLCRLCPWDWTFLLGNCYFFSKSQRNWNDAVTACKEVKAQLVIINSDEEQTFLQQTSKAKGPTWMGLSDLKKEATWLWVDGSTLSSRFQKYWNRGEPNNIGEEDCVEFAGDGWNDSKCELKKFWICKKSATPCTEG

What is called Kd is the constant that tells how readily two partners part at equilibrium. As to “Hemagglutinin HA from Influenza A H1N1 (A/Puerto Rico/8/34) (from UniProt P03452) (natural protein)”, the Kd was found to be 0.142 µM.
